Non-standard residues stand in square brackets, D forms with d. No end group written: not given here. pT = C[C@@H](OP(=O)(O)O)[C@H](N)C(=O)O
Biological target: T1, SA2–SCC1 complex (SA2 amino acid residues 80–1060 with SCC1 amino acid residues 281–420) (UniProt Q8N3U4 80-1060; O60216 281-420)
T1 construct: SA2 (STAG2), cohesin subunit, residues 80-1060; SCC1 (RAD21, Mcd1), cohesin subunit, residues 281-420; also called cohesin subcomplex SA2–SCC1; CES
T1 sequence (looked up) 1: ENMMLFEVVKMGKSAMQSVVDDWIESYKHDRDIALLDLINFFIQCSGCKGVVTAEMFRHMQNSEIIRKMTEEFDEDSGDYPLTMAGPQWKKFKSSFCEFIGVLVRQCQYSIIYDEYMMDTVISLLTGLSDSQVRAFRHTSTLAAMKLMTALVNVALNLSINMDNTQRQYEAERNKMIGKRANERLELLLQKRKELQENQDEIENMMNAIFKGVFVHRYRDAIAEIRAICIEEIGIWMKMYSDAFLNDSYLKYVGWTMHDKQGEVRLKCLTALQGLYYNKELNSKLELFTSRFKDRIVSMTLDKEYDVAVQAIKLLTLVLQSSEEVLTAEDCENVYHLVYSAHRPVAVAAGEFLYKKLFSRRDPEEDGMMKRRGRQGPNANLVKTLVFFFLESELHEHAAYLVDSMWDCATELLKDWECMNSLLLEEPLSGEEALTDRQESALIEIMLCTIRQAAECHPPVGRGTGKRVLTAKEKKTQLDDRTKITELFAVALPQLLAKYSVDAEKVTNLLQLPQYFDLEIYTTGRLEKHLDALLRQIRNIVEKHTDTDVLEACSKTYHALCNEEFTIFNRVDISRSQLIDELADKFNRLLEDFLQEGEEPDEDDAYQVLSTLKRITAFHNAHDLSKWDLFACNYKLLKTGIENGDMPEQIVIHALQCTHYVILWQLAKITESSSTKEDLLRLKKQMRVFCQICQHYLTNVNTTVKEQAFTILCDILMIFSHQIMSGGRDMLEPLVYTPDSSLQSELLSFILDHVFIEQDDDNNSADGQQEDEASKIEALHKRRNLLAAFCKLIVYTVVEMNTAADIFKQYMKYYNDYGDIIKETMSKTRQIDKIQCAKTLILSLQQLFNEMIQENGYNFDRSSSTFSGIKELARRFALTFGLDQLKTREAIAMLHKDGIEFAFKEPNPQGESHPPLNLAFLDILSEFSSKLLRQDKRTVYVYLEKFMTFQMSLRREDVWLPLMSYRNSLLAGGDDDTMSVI
T1 sequence (looked up) 2: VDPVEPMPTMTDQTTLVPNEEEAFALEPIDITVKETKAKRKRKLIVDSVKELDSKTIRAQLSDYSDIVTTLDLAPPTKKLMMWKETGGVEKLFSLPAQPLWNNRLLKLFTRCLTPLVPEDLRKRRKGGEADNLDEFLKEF
Assay: ITC; performed as described previously (ref. 21); data analysed with Origin 7.0; SGO1 peptides with SA2–SCC1
Details: both partners purified

Binder	Kd
SNDAYNFNLEE (Shugoshin 1 (SGO1), human, residues 331-341 with the YxF motif; also called SGO1 331–341; nonphosphorylated SGO1 peptide) [SGO1 peptide spanning amino acids 331–341 (SNDAYNFNLEE)]	13.5 ± 1.4 µM
SNDAYNFNLEEGVHL[pT]PFR (Shugoshin 1 (SGO1), human, residues 331-349, T346 phosphorylated; also called T346-phosphorylated SGO1 fragment; SGO1 331–349 pT346) [SGO1 peptide spanning amino acids 331–349 containing phosphorylated pT346 (SNDAYNFNLEEGVHLpTPFR)]	2.3 ± 0.4 µM
